Experimental findings from PMC4760375, “A dual phosphorylation switch controls 14-3-3-dependent cell surface expression of TASK-1” (Journal of Cell Science, 2016) are described below.

Non-standard residues stand in square brackets, D forms with d. No end group written: not given here. pS = N[C@@H](COP(=O)(O)O)C(=O)O

What is called Kd is the concentration at which binding is half-saturated. A low value points to higher affinity.

Assay [1] deals with GST-tagged TASK-3 C-terminal 15 residues fusion protein, phosphorylated with PKA catalytic subunit (human) (UniProt Q9NPC2). The experiment in a line: SPR; GST fusion protein captured by an anti-GST antibody on an HC1000m chip, phosphorylated on the chip with PKA catalytic subunit; 14-3-3 proteins as analyte; 20°C; 150 mM NaCl, 20 mM HEPES, 0.005% (v/v) Tween 20, pH 7.5; equilibrium binding isotherms. Background: SPR reads the build-up and loss of mass on a sensor chip optically.

The target in assay [2] is TASK-1 pS392 C-terminal fluorescent peptide (human) (UniProt O14649). Briefly: fluorescence polarisation; 10 nM fluorescein-labelled peptide titrated with 14-3-3 protein (1 nM to 120 µM in the results, 100 µM to 1 nM in the methods); 20 mM MOPS, 150 mM NaCl, 0.005% (v/v) CHAPS pH 7.0; room temperature; monophasic fit.
For assay [3], the target named is doubly phosphorylated TASK-1 C-terminal fluorescent peptide (pS392 and pS393) (human) (UniProt O14649). The description is as above.
The target of assay [4] is T1, 14-3-3ε (human, UniProt P62258 1-255).
T1 chain: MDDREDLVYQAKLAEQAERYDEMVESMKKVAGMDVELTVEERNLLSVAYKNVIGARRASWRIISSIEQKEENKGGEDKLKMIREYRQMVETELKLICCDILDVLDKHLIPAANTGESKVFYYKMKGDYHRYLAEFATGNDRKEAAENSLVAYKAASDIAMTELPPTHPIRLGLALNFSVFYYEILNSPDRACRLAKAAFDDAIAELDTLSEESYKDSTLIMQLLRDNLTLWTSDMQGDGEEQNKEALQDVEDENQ
Briefly: fluorescence polarization titration. As to conditions: reference: unphosphorylated peptide. For orientation: Polarisation of emitted light reports the rotation of a fluorescent probe.

Assay [5] addresses 14-3-3τ (UniProt P27348). The experiment in a line: fluorescence polarization titration. To be noted: reference: unphosphorylated peptide; sites S373.
The target in assay [6] is 14-3-3ζ (UniProt P63104). Briefly: fluorescence polarization titration. As to conditions: reference: unphosphorylated peptide.
Assay [7] addresses 14-3-3γ (UniProt P61981). The experiment in a line: fluorescence polarization titration. To be noted: reference: unphosphorylated peptide.
Assay [8] addresses T2, 14-3-3β (human, UniProt P31946 1-246).
T2 chain: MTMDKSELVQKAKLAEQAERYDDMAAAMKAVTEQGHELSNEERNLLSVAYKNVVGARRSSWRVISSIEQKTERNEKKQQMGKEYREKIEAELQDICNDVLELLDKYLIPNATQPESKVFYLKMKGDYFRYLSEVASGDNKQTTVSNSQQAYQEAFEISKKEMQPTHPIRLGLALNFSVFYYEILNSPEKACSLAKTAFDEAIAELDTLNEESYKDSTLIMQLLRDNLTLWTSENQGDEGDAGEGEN
Briefly: fluorescence polarization titration. To be noted: reference: unphosphorylated peptide; sites S373.

The target in assay [9] is 14-3-3η (UniProt Q04917). Briefly: fluorescence polarization titration. To be noted: reference: unphosphorylated peptide; sites S393.
Assay [10] addresses T3, 14-3-3σ (human, UniProt P31947 1-248).
T3 chain: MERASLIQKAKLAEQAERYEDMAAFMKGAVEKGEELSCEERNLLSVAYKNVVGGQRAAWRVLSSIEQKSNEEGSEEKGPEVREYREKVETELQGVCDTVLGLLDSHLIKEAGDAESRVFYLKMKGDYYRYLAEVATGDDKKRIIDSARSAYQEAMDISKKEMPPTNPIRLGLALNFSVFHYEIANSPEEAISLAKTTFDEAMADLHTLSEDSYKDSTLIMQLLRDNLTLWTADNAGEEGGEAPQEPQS
The experiment in a line: fluorescence polarization titration. To be noted: reference: unphosphorylated peptide; sites S393.

In assay [11] the target is T1, 14-3-3ε. Briefly: FP.
For assay [12], the target named is T4, 14-3-3τ (human, UniProt P27348 1-245).
T4 chain: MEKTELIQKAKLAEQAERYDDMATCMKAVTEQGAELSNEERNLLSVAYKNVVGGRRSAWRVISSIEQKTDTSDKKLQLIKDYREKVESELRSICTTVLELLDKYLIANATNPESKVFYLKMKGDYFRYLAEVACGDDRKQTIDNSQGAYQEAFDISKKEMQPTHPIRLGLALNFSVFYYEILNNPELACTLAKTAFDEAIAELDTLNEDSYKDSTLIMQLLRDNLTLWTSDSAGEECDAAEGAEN
The experiment in a line: FP.

In assay [13] the target is T5, 14-3-3ζ (human, UniProt P63104 1-245).
T5 chain: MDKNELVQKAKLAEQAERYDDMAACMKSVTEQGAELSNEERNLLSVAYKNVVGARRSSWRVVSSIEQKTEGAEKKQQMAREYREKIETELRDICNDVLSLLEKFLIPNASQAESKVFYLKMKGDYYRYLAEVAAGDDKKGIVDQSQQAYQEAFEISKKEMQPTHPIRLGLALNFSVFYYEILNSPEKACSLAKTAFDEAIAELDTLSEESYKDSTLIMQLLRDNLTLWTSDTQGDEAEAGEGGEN
The experiment in a line: FP.

Assay [14] deals with T6, 14-3-3γ (human, UniProt P61981 1-247).
T6 chain: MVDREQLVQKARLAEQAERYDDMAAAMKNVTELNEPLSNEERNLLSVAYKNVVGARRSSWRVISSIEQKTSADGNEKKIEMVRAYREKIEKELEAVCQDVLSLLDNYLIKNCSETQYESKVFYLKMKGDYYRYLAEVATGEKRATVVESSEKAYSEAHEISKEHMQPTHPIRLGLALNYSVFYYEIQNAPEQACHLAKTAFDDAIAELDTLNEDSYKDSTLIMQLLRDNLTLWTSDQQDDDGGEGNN
The experiment in a line: FP.

The target in assay [15] is T2, 14-3-3β. Briefly: FP.
Assay [16] addresses T7, GST-tagged TASK-3 C-terminal 15 residues fusion protein, phosphorylated with PKA catalytic subunit (human, UniProt Q9NPC2 360-374).
T7 chain: {GST}-SFTDHQRLMKRRK[pS]V
Briefly: SPR.

For assay [17], the target named is T8, TASK-3 pS373 ΔV374 C-terminal fluorescent peptide (human, UniProt Q9NPC2 360-374, ΔV374, also: fluorescein label, position not given here).
T8 construct: TASK-3 (KCNK9), human, C-terminal peptide with phosphorylated S373 but lacking the C-terminal valine V374; ends at pS373; source: synthetic peptide, bought: Peps4Life Sciences
T8 peptide (looked up): SFTDHQRLMKRRK[pS]
Briefly: fluorescence polarisation; 10 nM fluorescein-labelled peptide titrated with 14-3-3 protein (1 nM to 120 µM in the results, 100 µM to 1 nM in the methods); 20 mM MOPS, 150 mM NaCl, 0.005% (v/v) CHAPS pH 7.0; room temperature; monophasic fit. As to conditions: both partners purified.

The target of assay [18] is TASK-1 pS393 C-terminal fluorescent peptide (last 15 amino acids) (human) (UniProt O14649). The assay is described as above.
Assay [19] has as its target T3, 14-3-3σ. The experiment in a line: FP.
In assay [20] the target is T9, 14-3-3η (human, UniProt Q04917 1-246).
T9 chain: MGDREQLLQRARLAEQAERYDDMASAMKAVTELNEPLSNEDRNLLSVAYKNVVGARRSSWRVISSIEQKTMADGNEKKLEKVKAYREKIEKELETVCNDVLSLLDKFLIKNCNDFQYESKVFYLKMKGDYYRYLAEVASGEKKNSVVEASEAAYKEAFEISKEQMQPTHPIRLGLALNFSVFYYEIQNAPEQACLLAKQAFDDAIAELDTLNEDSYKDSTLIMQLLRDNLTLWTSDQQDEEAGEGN
The experiment in a line: FP.

As to “14-3-3γ (from UniProt P61981 1-247) (natural protein)”, the Kd in [1] is 0.045 µM; in [2], 100 µM; in [3], 200 µM.
For the molecule “TASK-3 last 15 amino acids of the C-terminus (from UniProt Q9NPC2) pS373 peptide”, the “binding against the reference” value with 14-3-3ε [4] (sites S373), with 14-3-3τ [5], with 14-3-3ζ [6] (sites S373), with 14-3-3γ [7] (sites S373) and with 14-3-3β [8] was “gained” each time.
On to “TASK-1 last 15 amino acids of the C-terminus (from UniProt O14649) pS393 peptide”, for which the “binding against the reference” value with 14-3-3ε [4] (sites S393), in the assay with 14-3-3η [9], in the assay with 14-3-3σ [10], with 14-3-3ζ [6] (sites S393) and with 14-3-3γ [7] (sites S393) was “gained” in each case.
Regarding SFTDHQRLMKRRK[pS]V (also: fluorescein label, position not given here) [TASK-3 pS373 C-terminal fluorescent peptide (last 15 amino acids)], the Kd was determined as 0.8 µM with 14-3-3ε [11]; 0.22 µM with 14-3-3τ [12]; 1 µM in the assay with 14-3-3ζ [13]; 0.15 µM with 14-3-3γ [14]; 0.37 µM with 14-3-3β [15].

B1: 14-3-3β (natural protein, human, UniProt P31946 1-246, looked up)
chain: T2 chain
notes: 14-3-3 protein beta, human; open reading frame inserted into pMAL2Cx; also called 14-3-3 beta
Turning to B1, the Kd in assay [16] worked out at 0.181 µM; in assay [2], 100 µM; in assay [18] it was 7.5 µM. Besides, the “fold reduction of affinity against the TASK-3 pS373 peptide with V374” value in [17] is 3 fold.

B2: 14-3-3ε (natural protein, human, UniProt P62258 1-255, looked up)
chain: T1 chain
notes: 14-3-3 protein epsilon, human; open reading frame inserted into pMAL2Cx; also called 14-3-3 epsilon
For B2, the Kd in assay [16] was found to be 0.15 µM; in assay [2], 100 µM. In addition, the “fold reduction of affinity against the TASK-3 pS373 peptide with V374” value in assay [17] is 23 fold.
Turning to SLSTFRGLMKRRS[pS]V (also: fluorescein label, position not given here) [TASK-1 pS393 C-terminal fluorescent peptide (last 15 amino acids)], the Kd in the assay with 14-3-3ε [11] was found to be 29 µM; in the assay with 14-3-3σ [19], 36 µM; with 14-3-3ζ [13], 23 µM; with 14-3-3η [20] it was 9.2 µM; in the assay with 14-3-3γ [14], 9.8 µM.
